Measured values published in patent US20240025995A1.

How the values were obtained:
[1] = target: human FcγRIIb on CHOK1 cells overexpressing FcγRIIb (human) (UniProt P31994); experiment: flow cytometry on CHOK1 cells overexpressing FcγRIIb; detection with anti-human kappa antibody
[2] = target: human FcγRIIa (R131) on CHOK1 cells overexpressing FcγRIIa (R131) (human) (UniProt P12318); experiment: flow cytometry on CHOK1 cells overexpressing FcγRIIa (R131); detection with anti-human kappa antibody
UniProt P12318, sequence (P12318 34-317 H167R): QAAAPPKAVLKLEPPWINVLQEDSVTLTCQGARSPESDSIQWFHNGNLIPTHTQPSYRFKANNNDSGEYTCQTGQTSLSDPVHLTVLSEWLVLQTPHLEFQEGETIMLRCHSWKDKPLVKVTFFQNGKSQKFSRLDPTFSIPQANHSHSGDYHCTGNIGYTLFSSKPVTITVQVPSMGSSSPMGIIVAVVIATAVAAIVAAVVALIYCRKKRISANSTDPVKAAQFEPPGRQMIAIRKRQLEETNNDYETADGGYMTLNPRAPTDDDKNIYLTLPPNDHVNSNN

UniProt P31994, sequence (P31994 43-310): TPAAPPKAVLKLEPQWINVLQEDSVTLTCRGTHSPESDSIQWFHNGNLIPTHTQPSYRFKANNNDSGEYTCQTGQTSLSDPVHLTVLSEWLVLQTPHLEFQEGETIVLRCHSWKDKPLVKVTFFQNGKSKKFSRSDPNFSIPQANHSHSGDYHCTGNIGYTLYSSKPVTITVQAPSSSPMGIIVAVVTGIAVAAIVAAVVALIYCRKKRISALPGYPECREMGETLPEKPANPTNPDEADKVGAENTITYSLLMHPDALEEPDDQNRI

| Substance | Log EC50 [1] | Log EC50 [2] |
| --- | --- | --- |
| anti-LAG3 SELF (from UniProt P01857 1-330) (antibody) | -0.0779 | – |
| anti-RSV AAA (from UniProt P01857 1-330) (antibody) | 4.42 | 3.9 |
